Source: patent US20040197862A1

target: HLA-DR1 (DRA, DRB1*0101), soluble, thrombin-cleaved DR/CLIP complex (human)

Substance | IC50 [µM]
HIV p24 (191-212) peptide | 1.6

target: HLA-DR2b (DRA, DRB1*1501), soluble, thrombin-cleaved DR/CLIP complex (human)

Substance | IC50 [µM]
HIV p24 (191-212) peptide | 3
HIV p24 (161-182) peptide | 9
HIV p24 (1-22) peptide | 8
HIV p24 (51-72) peptide | 10.8
HIV p24 (111-132) peptide | 10.8
HIV p24 (171-192) peptide | 0.9
